The values that follow come from publication PMC6928210 (Scientific Reports, 2019).

Where “and” joins values, the source holds several entries; their conditions need not be identical. Identical values can stand only once. Like-named read-outs stand apart in the source and are kept apart here.

Details of data set [1]: method as in PMID 9067281. The settings on record: PTX (or its polyglutamylated forms); cited from earlier work.
Data set [2] has as its target hcSHMT. To be noted: cited from earlier work.
Data set [3] has as its target T1, AtSHMT2 (Arabidopsis thaliana, UniProt Q94C74).
T1 construct: the protein N-truncated at E41; The open reading frames coding for AtSHMT2 41–517 fragment; His6 (N, cleaved yes); made in house; host or cells: E. coli BL21 Gold
T1 sequence (Q94C74 41-517): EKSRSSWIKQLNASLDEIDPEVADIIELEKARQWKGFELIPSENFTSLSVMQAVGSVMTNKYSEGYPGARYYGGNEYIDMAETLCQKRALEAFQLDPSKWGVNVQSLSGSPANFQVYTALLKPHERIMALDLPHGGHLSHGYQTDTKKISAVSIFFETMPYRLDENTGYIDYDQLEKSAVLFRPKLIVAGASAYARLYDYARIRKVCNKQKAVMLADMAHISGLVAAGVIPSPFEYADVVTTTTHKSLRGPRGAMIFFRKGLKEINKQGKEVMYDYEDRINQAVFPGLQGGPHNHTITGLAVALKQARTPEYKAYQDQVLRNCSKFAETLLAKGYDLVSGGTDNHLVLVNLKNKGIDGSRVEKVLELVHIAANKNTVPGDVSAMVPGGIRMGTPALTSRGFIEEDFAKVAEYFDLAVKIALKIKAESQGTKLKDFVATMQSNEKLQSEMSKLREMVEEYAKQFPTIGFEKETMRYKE
Kind of data set: Competitive binding assay vs 5-formyl-THF, quinonoid intermediate absorbance. To be noted: AtSHMT2, 20 mM KPi pH 8.0, 30 °C, glycine 10 mM, 5-formyl-THF varied; read-out: Ki (inhibition constant, antifolate binding to the enzyme-glycine complex). The source says: (§1) In this system, the obtained Ki values refer to binding of the antifolates to the enzyme-glycine complex.
(§2) Secondary plots of slopes as functions of antifolate concentrations were obtained from fitting of inhibition data (Fig. S2). Intercept on the X-axis gives an estimate of the inhibition constant (Ki) related to antifolate binding to the enzyme-glycine complex. Since it is known that the mitochondrial matrix has an alkaline pH (pH 8[68]) as compared to the cytosol (pH 7.3[68]), inhibition measurements were performed in 20 mM KPi buffer at pH 8.0 for AtSHMT2 and pH 7.3 for AtSHMT4 at 30 °C. […] Units of slopes are μM.
(§3) Inhibition assays were performed using 5 μM enzyme solutions. All assays were carried out at 30 °C in 20 mM KPi buffer at either pH 8.0, in the case of AtSHMT2, or pH 7.3 in the case of AtSHMT4. Methotrexate was dissolved in pure DMSO.
(§4) The intermediate develops when both ligands bind to SHMT, forming an enzyme-glycine-folate ternary complex. […] Data were analyzed to obtain estimates of the dissociation constant (Kd) and αKd (in the presence of a saturating concentration of the other ligand) for both ligands, as reported in[31].
(§5) The obtained data were used to produce double reciprocal plots and fitted to linear equations. […] Fitting of data was performed with the software PRISM (GraphPad, La Jolla, CA, USA). All experiments were performed in triplicate using a Hewlett-Packard 8453 diode-array spectrophotometer (Agilent Technologies, Santa Clara, CA).
(§6) Absorbance at 505 nm (AtSHMT2) or 500 nm (AtSHMT4) from the quinonoid intermediate formed
(§7) measured at equilibrium. Right-side charts show double reciprocal plots of data shown in left-side panels ﬁtted to a […]

Data set [4] concerns the target T2, AtSHMT4 (Arabidopsis thaliana, UniProt O23254).
T2 construct: The open reading frames coding for AtSHMT2 41–517 fragment and full-length AtSHMT4 were amplified; His6 (N, cleaved yes); made in house; host or cells: E. coli BL21 Gold
T2 sequence (O23254 1-471): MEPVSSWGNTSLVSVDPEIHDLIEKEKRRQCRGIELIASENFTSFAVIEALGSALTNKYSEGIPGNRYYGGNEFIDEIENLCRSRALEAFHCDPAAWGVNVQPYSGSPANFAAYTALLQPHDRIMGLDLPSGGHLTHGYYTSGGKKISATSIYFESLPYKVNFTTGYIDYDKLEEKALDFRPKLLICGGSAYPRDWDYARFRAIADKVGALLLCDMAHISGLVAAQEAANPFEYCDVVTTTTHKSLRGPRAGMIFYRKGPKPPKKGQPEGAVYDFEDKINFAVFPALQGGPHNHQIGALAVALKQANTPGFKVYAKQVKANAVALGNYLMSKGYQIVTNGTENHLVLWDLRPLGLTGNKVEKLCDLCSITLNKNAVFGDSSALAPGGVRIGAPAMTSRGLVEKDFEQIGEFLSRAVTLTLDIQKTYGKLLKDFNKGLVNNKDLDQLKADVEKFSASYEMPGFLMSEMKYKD
Described as above. To be noted: AtSHMT4, 20 mM KPi pH 7.3, 30 °C, glycine 10 mM, 5-formyl-THF varied; read-out: Ki (inhibition constant, antifolate binding to the enzyme-glycine complex).
Description: as §1, §2, §3, §4, §5, §6, §7

The target of data set [5] is T1, AtSHMT2. Kind of data set: SHMT forward reaction (serine + THF), coupled assay, initial velocity. In kind it is biochemical. To be noted: read-out: KM THF; AtSHMT2, pH 6.5, 30 mM L-serine fixed, 30 °C. The procedure: (§8) Figure 2 Dependence of AtSHMT2 and AtSHMT4 activity on pH. The initial velocity of the SHMT forward reaction was measured at different pH values with AtSHMT2 and AtSHMT4 (0.2 μM) using a fixed concentration of one substrate while varying the concentration of the other substrate. The fixed L-serine concentration was saturating. […] All experimental points are the average ± standard deviation of three independent measurements. […] Reactions were carried out at 30 °C.
(§9) Activities were measured at different pH values (6.0, 7.0, 8.5 and 9.5). For pH 6.0, 7.0 and 8.5, the assays were performed in 20 mM phosphate buffer. Measurements at pH 9.5 were performed in a mixture of 50 mM MES, 50 mM HEPES, and 50 mM CHES and the final pH was adjusted with KOH.

Data set [6] concerns the target T2, AtSHMT4. The data set is described as above. Format: biochemical. The settings on record: read-out: KM THF, 30 °C. How it is done:
as §8, §9

The test system of data set [7] is AtSHMT3. On the set-up: method as in PMID 20518745. To be noted: read-out: KM for THF; cited from earlier work.
Substrate in data set [8]: N[C@@H](CO)C(=O)O
Kind of data set: purified protein, by the assay type. Format: biochemical, Arabidopsis thaliana. The settings on record: 30 °C.

The mark [9] stands for this setting: other: AtSHMT2, pH 6.5, 180 µM THF fixed, pH 6.5.
[10] abbreviates: other: AtSHMT2, pH 7, 180 µM THF fixed, pH 7.0.
Setting [11] is: other: AtSHMT2, pH 8, 180 µM THF fixed, pH 8.0.
Setting [12] is: other: AtSHMT2, pH 8.5, 180 µM THF fixed, pH 8.5.
The mark [13] stands for this setting: other: AtSHMT2, pH 9.5, 180 µM THF fixed, pH 9.5.
The mark [14] stands for this setting: other: AtSHMT4, pH 6.5, 30 µM THF fixed, pH 6.5.
[15] abbreviates: other: AtSHMT4, pH 7, 30 µM THF fixed, pH 7.0.
The mark [16] stands for this setting: other: AtSHMT4, pH 8, 50 µM THF fixed, pH 8.0.
Setting [17] is: other: AtSHMT4, pH 8.5, 80 µM THF fixed, pH 8.5.
[18] abbreviates: other: AtSHMT4, pH 9.5, 100 µM THF fixed, pH 9.5.

For `Nc1nc2[nH]cc(CCc3ccc(C(=O)N[C@@H](CCC(=O)O)C(=O)O)cc3)c2c(=O)[nH]1` [PTX, pemetrexed], the Intracellular concentration in data set [1] is 10 to 30 µM. The Ki in data set [2] (ref Daidone et al.[26], read-out: KiPTX (inhibition constant)) is 19.1 µM; in data set [3] it was 119 µM; in data set [4] it was 95 µM and 95.1 µM.

Turning to `CN(Cc1cnc2nc(N)nc(N)c2n1)c1ccc(C(=O)N[C@@H](CCC(=O)O)C(=O)O)cc1` [MTX, methotrexate], the Ki was 201 µM in data set [2] (ref Paiardini et al.[45], read-out: KiMTX (apparent inhibition constant)); 270 µM in data set [3]; 179 µM in data set [4].

In general, Km refers to the substrate concentration at which the rate is half of its maximum. Consider tetrahydrofolate [THF], for which the Km in data set [5] is 83.6 ± 8.1 µM; in data set [6] (AtSHMT4, pH 6.5, 30 mM L-serine fixed), 7.87 ± 1.62 µM; in data set [6] (AtSHMT4, pH 7, 30 mM L-serine fixed), 15 ± 1.87 µM; in data set [6] (AtSHMT4, pH 8, 30 mM L-serine fixed), 23.8 ± 3.99 µM; in data set [6] (AtSHMT4, pH 8.5, 30 mM L-serine fixed) it was 33.8 ± 5.63 µM; in data set [7] it was 218 µM.

B1: AtSHMT2 (Arabidopsis thaliana) (protein)
chain: T1 sequence (Q94C74 41-517)
notes: the protein N-truncated at E41; The open reading frames coding for AtSHMT2 41–517 fragment; His6 (N, cleaved yes); made in house; host or cells: E. coli BL21 Gold
A word on the kcat/Km: it is the turnover number divided by the Michaelis constant. For the molecule B1, the Michaelis constant (Km) worked out at 11650 ± 2030 µM in data set [8] (setting [9]); 8050 ± 1360 µM in data set [8] (setting [10]); 2860 ± 300 µM in data set [8] (setting [11]); 1780 ± 220 µM in data set [8] (setting [12]); 710 ± 90 µM in data set [8] (setting [13]). For the same molecule, the catalytic efficiency (kcat/Km) in data set [8] (setting [9]) amounted to 450 M⁻¹ s⁻¹; in data set [8] (setting [10]), 1010 M⁻¹ s⁻¹; in data set [8] (setting [11]), 4530 M⁻¹ s⁻¹; in data set [8] (setting [12]), 11600 M⁻¹ s⁻¹; in data set [8] (setting [13]) it was 30700 M⁻¹ s⁻¹.

B2: AtSHMT4 (Arabidopsis thaliana) (protein)
chain: T2 sequence (O23254 1-471)
notes: The open reading frames coding for AtSHMT2 41–517 fragment and full-length AtSHMT4 were amplified; His6 (N, cleaved yes); made in house; host or cells: E. coli BL21 Gold
For B2, the Michaelis constant (Km) is 2560 ± 260 µM in data set [8] (setting [14]); 540 ± 50 µM in data set [8] (setting [15]); 300 ± 20 µM in data set [8] (setting [16]); 240 ± 20 µM in data set [8] (setting [17]); 200 ± 20 µM in data set [8] (setting [18]). Further, the kcat/Km in data set [8] (setting [14]) stood at 4630 M⁻¹ s⁻¹; in data set [8] (setting [15]), 30000 M⁻¹ s⁻¹; in data set [8] (setting [16]), 57900 M⁻¹ s⁻¹; in data set [8] (setting [17]), 81500 M⁻¹ s⁻¹; in data set [8] (setting [18]), 90800 M⁻¹ s⁻¹.
